In test [1] the target is T1, polymerized microtubules (bovine brain tubulin) (Bos taurus, UniProt P81947+Q6B856).
T1 construct: containing 125 μg bovine brain tubulin (Cytoskeleton, Denver, Colo.); purchased Cytoskeleton, Denver, Colo; host or cells: bovine brain (tissue-purified)
In words: Microtubule depolymerization assay (centrosomes omitted). To be noted: centrosomes absent; nocodazole 15 μM as positive control; data not shown. The class given is biochemical. The method, then:
Microtubule Depolymerization Assay
In this assay, centrosomes are omitted from the above reaction mixtures to determine the effects of various truncated GST-CPAP proteins or synthetic peptides on microtubule polymerization in the absence of centrosomes. Polymerized microtubules were stained using FITC-conjugated anti-α-tubulin monoclonal antibodies, as above. Nocodazole (15 μM) was added to some reactions mixtures as a positive control for microtubule depolymerization.

Test [2] has as its system HeLa cells. In words: Cell-based assay for CPAP activity: microtubule reassembly in cold-treated transfected HeLa cells. On the set-up: species or system human. To be noted: transiently transfected HeLa cells. As to the method:
Cell Culture and Transfection
HeLa cells were maintained in DMEM supplemented with 10% fetal bovine serum. cDNA clones encoding different portions of CPAP were subcloned, in an appropriate reading frame, into the CMV promoter-driven EGFP-C1 expression vector (Clontech, Palo Alto, Calif.). Transient transfections were performed using Lipofectamine 2000 (Invitrogen, Carlsbad, Calif.) according to the manufacturer's instructions.
Cold Treatment, Immunofluorescence and Confocal Microscopy
HeLa cells were grown on coverslips for at least 24 hr. Cold treatment was performed by incubating the cells at 4° C. for 1 hr, then replacing the cold medium with medium warmed to 30° C. and incubating the cells for 2 min at 30° C. The cells were then fixed with 1% formaldehyde for 30 min at room temperature.
The fixed cells were incubated in the presence of anti-α-tubulin monoclonal antibodies (N356, Amersham, Piscataway, N.J.) and anti-γ-tubulin polyclonal antibodies (Sigma, Saint Louis, Mo.). Bound anti-α-tubulin monoclonal antibodies (N356) were detected with Alexa 568, a Texas Red-conjugated goat anti-mouse IgG, or Alexa 647, a far-red fluorophore-conjugated goat anti-mouse IgG. Bound anti-γ-tubulin polyclonal antibodies were detected with Alexa 568 (Molecular Probes Inc.). The resulting […] signals were detected using a laser scanning confocal system (MRC 1000, Bio-Rad Laboratories, Hercules, Calif.).
The effect of various polypeptides derived from CPAP was determined by evaluating the amounts of mitotic spindle formation in the transfected cells. Decreased mitotic spindle formation indicated the presence of an activity that inhibited microtubule formation or destabilized microtubules.

No end group written: not given here.

T1 sequence (P81947 whole entry): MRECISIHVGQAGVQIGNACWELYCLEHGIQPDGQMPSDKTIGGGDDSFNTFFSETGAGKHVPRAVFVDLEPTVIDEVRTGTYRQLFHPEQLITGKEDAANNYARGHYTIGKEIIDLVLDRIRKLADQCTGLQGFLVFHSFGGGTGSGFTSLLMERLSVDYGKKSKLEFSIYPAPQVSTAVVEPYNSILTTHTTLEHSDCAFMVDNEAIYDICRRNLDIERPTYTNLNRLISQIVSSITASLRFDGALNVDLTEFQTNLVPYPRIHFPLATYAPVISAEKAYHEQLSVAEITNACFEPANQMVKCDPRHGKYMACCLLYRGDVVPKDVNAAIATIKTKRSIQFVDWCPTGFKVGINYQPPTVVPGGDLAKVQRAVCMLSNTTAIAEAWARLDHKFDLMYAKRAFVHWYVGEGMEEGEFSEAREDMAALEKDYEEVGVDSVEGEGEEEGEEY
T1 sequence (Q6B856 whole entry): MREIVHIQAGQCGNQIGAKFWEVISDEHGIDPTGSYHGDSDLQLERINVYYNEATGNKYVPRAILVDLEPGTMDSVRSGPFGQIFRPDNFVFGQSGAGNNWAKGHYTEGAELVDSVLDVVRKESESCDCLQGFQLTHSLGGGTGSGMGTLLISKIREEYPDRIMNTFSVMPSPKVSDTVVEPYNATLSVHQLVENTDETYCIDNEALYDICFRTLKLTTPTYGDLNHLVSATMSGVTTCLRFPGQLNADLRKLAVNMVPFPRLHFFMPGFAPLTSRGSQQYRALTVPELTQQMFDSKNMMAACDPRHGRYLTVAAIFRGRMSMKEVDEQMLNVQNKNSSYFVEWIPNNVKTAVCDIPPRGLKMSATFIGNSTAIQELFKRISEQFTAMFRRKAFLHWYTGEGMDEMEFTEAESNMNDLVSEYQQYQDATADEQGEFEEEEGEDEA

Take `COC(=O)Nc1nc2ccc(C(=O)c3cccs3)cc2[nH]1` [nocodazole, Nocodazole, reference compound]: the “Disassembly of polymerized microtubules in the absence of centrosomes (in words)” value in test [1] was “disassembled”.
In the case of “GST-PN2-1: GST fusion polypeptide with sub-region PN2-1 of PN2 (CPAP residues 132-190 per b157) (EFKEGAYKDPLFKKLEQLKEVQQKKQEQLKRQQLEQLQRLMEEQEKLLTMVSGQCTLPG; also: GST fusion, terminus not given here)”, in test [1], the “Disassembly of polymerized microtubules in the absence of centrosomes (in words)” value is “no such effect”.

B1: GFP-PN2-2: GFP-tagged CPAP residues 191-310 (protein, UniProt Q9HC77 191-310, looked up, fragment)
chain: LSLLPDDQSQKHRSPGNTTTGERATCCFPSYVYPDPTQEETYPSNILSHEQSNFCRTAHGDFVLTSKRASPNLFSEAQYQEAPVEKNNLKEENRNHPTGESILCWEKVTEQIQEANDKNL
modifications: GFP tag
For B1, in test [2], the “Inhibition of microtubule reassembly in cold-treated mitotic cells (in words)” value (“Inhibition of microtubule reassembly” for short) is recorded as “no significant inhibition”.

B2: GFP-A5N: GFP-tagged CPAP residues 423-607 (protein, UniProt Q9HC77 423-607, looked up, fragment)
chain: KTALKNKELCADNPILKKDSKARTKSGSVTLSQKPKMLKCSNRKSLSPSGLKIQTGKKCDGQFRDQIKFENKVTSNNKENVTECPKPCDTGCTGWNKTQGKDRLPLSTGPASRLAAKSPIRETMKESESSLDVSLQKKLETWEREKEKENLELDEFLFLEQAADEISFSSNSSFVLKILERDQQI
modifications: GFP tag
Regarding B2, in test [2], the “Inhibition of microtubule reassembly” value is “no significant inhibition”.

B3: GFP-A5M2: GFP-tagged CPAP residues 607-1070 (protein, UniProt Q9HC77 607-1070, looked up, fragment)
chain: ICKGHRMSSTPVKAVPQKTNPADPISHCNRSEDLDHTAREKESECEVAPKQLHSLSSADELREQPCKIRKAVQKSTSENQTEWNARDDEGVPNSDSSTDSEEQLDVTIKPSTEDRERGISSREDSPQVCDDKGPFKDTRTQEDKRRDVDLDLSDKDYSSDESIMESIKHKVSEPSRSSSLSLSKMDFDDERTWTDLEENLCNHDVVLGNESTYGTPQTCYPNNEIGILDKTIKRKIAPVKRGEDLSKSRRSRSPPTSELMMKFFPSLKPKPKSDSHLGNELKLNISQDQPPGDNARSQVLREKIIELETEIEKFKAENASLAKLRIERESALEKLRKEIADFEQQKAKELARIEEFKKEEMRKLQKERKVFEKYTTAARTFPDKKEREEIQTLKQQIADLREDLKRKETKWSSTHSRLRSQIQMLVRENTDLREEIKVMERFRLDAWKRAEAIESSLEVEKKDK
modifications: GFP tag
As to B3, the “Inhibition of microtubule reassembly” value in test [2] is recorded as “no significant inhibition”.

B4: GFP-PN1: GFP-tagged CPAP residues 1-132 (protein, UniProt Q9HC77 1-132, looked up, fragment)
chain: MFLMPTSSELNSGQNFLTQWMTNPSRAGVILNRGFPILEADKEKRAAVDISTSFPIKGTHFSDSFSFINEEDSLLEEQKLESNNPYKPQSDKSETHTAFPCIKKGPQVAACHSAPGHQEENKNDFIPDLASE
modifications: GFP tag
As for B4, in test [2], the “Inhibition of microtubule reassembly” value was “no significant inhibition”.

B5: GFP-A5C: GFP-tagged CPAP residues 1070-1338 (protein, UniProt Q9HC77 1070-1338, looked up, fragment)
chain: KLANTSVRFQNSQISSGTQVEKYKKNYLPMQGNPPRRSKSAPPRDLGNLDKGQAASPREPLEPLNFPDPEYKEEEEDQDIQGEISHPDGKVEKVYKNGCRVILFPNGTRKEVSADGKTITVTFFNGDVKQVMPDQRVIYYYAAAQTTHTTYPEGLEVLHFSSGQIEKHYPDGRKEITFPDQTVKNLFPDGQEESIFPDGTIVRVQRDGNKLIEFNNGQRELHTAQFKRREYPDGTVKTVYANGHQETKYRSGRIRVKDKEGNVLMDTEL
modifications: GFP tag
In the case of B5, the “Inhibition of microtubule reassembly” value in test [2] is “no significant inhibition”.

The record behind these values is US7449563B2, “Methods and compositions for destabilizing microtubules” (Academia Sinica, priority 2003, dated 2008).
